The target in the assay is VEGF. Kind of assay: cell-based or functional assay.

From patent US20060014669A1 come the findings set out here.

As to “Murine Flk1-Fc (murine Flk1 ectodomain fused to murine IgG2a Fc fragment, adenovirus-expressed) (from UniProt P35918 20-762) (Fc fusion)”, the inhibition of VEGF-induced HUVEC proliferation in vitro, IC50 is 0.1 µg/mL.
With “Murine Flt1(1-3) soluble ectodomain with C-terminal 6xHis tag (adenovirus-expressed) (from UniProt P35969 23-328) (receptor)” the figure was 0.005 µg/mL.
